This is an account of results in the supplement of paper PMC5998384.

The subject of data set [1] is HeLa Kyoto. The experiment in a line: thermal stability score vs G1/S (z-score of summed log2 fold changes over temperatures); higher = more thermally stable than in G1/S.
The test system of data set [2] is HeLa Kyoto. The data set can be described thus: melting temperature (median over replicates), in situ; higher = more thermally stable.
Data set [3] relates to HeLa Kyoto. The experiment in a line: solubility change mitosis vs G1/S (difference of NP-40 vs SDS log2 ratios) (log2 ratio difference); higher = more soluble in mitosis.
The subject of data set [4] is HeLa Kyoto. The data set can be described thus: solubility in G1/S (NP-40 vs SDS abundance) (log2 ratio); higher = more soluble. To be noted: cell cycle stage: G1/S.
[5] abbreviates: cell cycle stage: early G1 (4.5 h after nocodazole release).
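Throughout, for melting temperature (median over replicates), in situ: HeLa Kyoto cells synchronized by double thymidine or nocodazole block, proteins quantified by TMT10plex mass spectrometry, three independent biological replicates.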
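Throughout, for solubility change mitosis vs G1/S (difference of NP-40 vs SDS log2 ratios): synchronized HeLa Kyoto cells (double thymidine block for G1/S, nocodazole release for mitosis), protein amounts in NP-40 versus SDS lysates quantified by mass spectrometry, three biological replicates.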
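Throughout, for solubility in G1/S (NP-40 vs SDS abundance): HeLa Kyoto cells arrested at G1/S by double thymidine block, proteins quantified by TMT10plex mass spectrometry in mild NP-40 versus SDS extracts, three biological replicates.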
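Throughout, for thermal stability score vs G1/S (z-score of summed log2 fold changes over temperatures): synchronized HeLa Kyoto cells, proteins quantified by TMT10plex mass spectrometry, three biological replicates, mitosis taken 0.5 h after nocodazole release, G1/S directly after double thymidine block.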

As for “MASCPDSDNSWVLAGSESLPVETLGPASRMDPESERALQAPHSPSKTDGKELAGTMDGEGTLFQTESPQSGSILTEETEVKGTLEGDVCGVEPPGPGDTVVQGDLQETTVVTGLGPDTQDLEGQSPPQSLPSTPKAAWIREEGRCSSSDDDTDVDMEGLRRRRGREAGPPQPMVPLAVENQAGGEGAGGELGISLNMCLLGALVLLGLGVLLFSGGLSESETGPMEEVERQVLPDPEVLEAVGDRQDGLREQLQAPVPPDSVPSLQNMGLLLDKLAKENQDIRLLQAQLQAQKEELQSLMHQPKGLEEENAQLRGALQQGEAFQRALESELQQLRARLQGLEADCVRGPDGVCLSGGRGPQGDKAIREQGPREQEPELSFLKQKEQLEAEAQALRQELERQRRLLGSVQQDLERSLQDASRGDPAHAGLAELGHRLAQKLQGLENWGQDPGVSANASKAWHQKSHFQNSREWSGKEKWWDGQRDRKAEHWKHKKEESGRERKKNWGGQEDREPAGRWKEGRPRVEESGSKKEGKRQGPKEPPRKSGSFHSSGEKQKQPRWREGTKDSHDPLPSWAELLRPKYRAPQGCSGVDECARQEGLTFFGTELAPVRQQELASLLRTYLARLPWAGQLTKELPLSPAFFGEDGIFRHDRLRFRDFVDALEDSLEEVAVQQTGDDDEVDDFEDFIFSHFFGDKALKKRSGKKDKHSQSPRAAGPREGHSHSHHHHHRG [PBXIP1]”, the thermal stability score in the data set on HeLa Kyoto [1] (setting [5]) was -1.68; in the data set with HeLa Kyoto [1] (cell cycle stage: mitosis) it was 0.474. Moreover, the figures for the melting temperature in the data set with HeLa Kyoto [2] (cell cycle stage: G1/S) and in the data set with HeLa Kyoto [2] (cell cycle stage: mitosis) were 55.4 °C and 53.7 °C, respectively. Also, the “solubility change mitosis (log2)” value with HeLa Kyoto [3] is -0.0444. Also, the “solubility in G1/S (log2)” value in the data set on HeLa Kyoto [4] was -0.166.
“MASEEASLRALESLMTEFFHDCTTNERKREIEELLNNFAQQIGAWRFCLYFLSSTRNDYVMMYSLTVFENLINKMWLGVPSQDKMEIRSCLPKLLLAHHKTLPYFIRNKLCKVIVDIGRQDWPMFYHDFFTNILQLIQSPVTTPLGLIMLKTTSEELACPREDLSVARKEELRKLLLDQVQTVLGLLTGILETVWDKHSVTAATPPPSPTSGESGDLLSNLLQSPSSAKLLNQPIPILDVESEYICSLALECLAHLFSWIPLSASITPSLLTTIFHFARFGCDIRARKMASVNGSSQNCVSGQERGRLGVLAMSCINELMSKNCVPMEFEEYLLRMFQQTFYLLQKITKDNNAHTVKSRLEELDESYIEKFTDFLRLFVSVHLRRIESYSQFPVVEFLTLLFKYTFHQPTHEGYFSCLDIWTLFLDYLTSKIKSRLGDKEAVLNRYEDALVLLLTEVLNRIQFRYNQAQLEELDDETLDDDQQTEWQRYLRQSLEVVAKVMELLPTHAFSTLFPVLQDNLEVYLGLQQFIVTSGSGHRLNITAENDCRRLHCSLRDLSSLLQAVGRLAEYFIGDVFAARFNDALTVVERLVKVTLYGSQIKLYNIETAVPSVLKPDLIDVHAQSLAALQAYSHWLAQYCSEVHRQNTQQFVTLISTTMDAITPLISTKVQDKLLLSACHLLVSLATTVRPVFLISIPAVQKVFNRITDASALRLVDKAQVLVCRALSNILLLPWPNLPENEQQWPVRSINHASLISALSRDYRNLKPSAVAPQRKMPLDDTKLIIHQTLSVLEDIVENISGESTKSRQICYQSLQESVQVSLALFPAFIHQSDVTDEMLSFFLTLFRGLRVQMGVPFTEQIIQTFLNMFTREQLAESILHEGSTGCRVVEKFLKILQVVVQEPGQVFKPFLPSIIALCMEQVYPIIAERPSPDVKAELFELLFRTLHHNWRYFFKSTVLASVQRGIAEEQMENEPQFSAIMQAFGQSFLQPDIHLFKQNLFYLETLNTKQKLYHKKIFRTAMLFQFVNVLLQVLVHKSHDLLQEEIGIAIYNMASVDFDGFFAAFLPEFLTSCDGVDANQKSVLGRNFKMDRDLPSFTQNVHRLVNDLRYYRLCNDSLPPGTVKL [XPO6]”: the thermal stability score in the data set with HeLa Kyoto [1] (setting [5]) was determined as 0.528; with HeLa Kyoto [1] (cell cycle stage: mitosis), 0.436. The melting temperature came to 49.6 °C in the data set on HeLa Kyoto [2] (cell cycle stage: G1/S) and 50 °C in the data set on HeLa Kyoto [2] (cell cycle stage: mitosis). In the data set on HeLa Kyoto [3], the “solubility change mitosis (log2)” value was -0.202. Further, the “solubility in G1/S (log2)” value in the data set with HeLa Kyoto [4] is -0.281.
Consider “MASEKPLAAVTCTAPVNIAVIKYWGKRDEELVLPINSSLSVTLHQDQLKTTTTAVISKDFTEDRIWLNGREEDVGQPRLQACLREIRCLARKRRNSRDGDPLPSSLSCKVHVASVNNFPTAAGLASSAAGYACLAYTLARVYGVESDLSEVARRGSGSACRSLYGGFVEWQMGEQADGKDSIARQVAPESHWPELRVLILVVSAEKKLTGSTVGMRASVETSPLLRFRAESVVPARMAEMARCIRERDFPSFAQLTMKDSNQFHATCLDTFPPISYLNAISWRIIHLVHRFNAHHGDTKVAYTFDAGPNAVIFTLDDTVAEFVAAVWHGFPPGSNGDTFLKGLQVRPAPLSAELQAALAMEPTPGGVKYIIVTQVGPGPQILDDPCAHLLGPDGLPKPAA [MVD]”, for which the thermal stability score with HeLa Kyoto [1] (setting [5]) is -0.632; in the data set with HeLa Kyoto [1] (cell cycle stage: mitosis), -0.962. For the same sequence, the melting temperature with HeLa Kyoto [2] (cell cycle stage: G1/S) and in the data set on HeLa Kyoto [2] (cell cycle stage: mitosis) was 52.6 °C in each case. The “solubility change mitosis (log2)” value in the data set on HeLa Kyoto [3] is -0.138. For the same sequence, the “solubility in G1/S (log2)” value in the data set with HeLa Kyoto [4] is 0.321.
